Measurements: publication PMC3328272, “HIV-1 Nef interaction influences the ATP-binding site of the Src-family kinase, Hck” (BMC Chemical Biology, 2012)

Target: T1, HIV-1 Nef-SF2, untagged (HIV-1 (SF2), UniProt P03407)
T1 construct: also called Nef (B-clade allele SF2); source: E. coli, purified without N-terminal His tag (anion exchange HiPrep Q FF, gel filtration Superdex 75)
Assay: SPR
Settings: both partners purified

T1 sequence (P03407 whole entry): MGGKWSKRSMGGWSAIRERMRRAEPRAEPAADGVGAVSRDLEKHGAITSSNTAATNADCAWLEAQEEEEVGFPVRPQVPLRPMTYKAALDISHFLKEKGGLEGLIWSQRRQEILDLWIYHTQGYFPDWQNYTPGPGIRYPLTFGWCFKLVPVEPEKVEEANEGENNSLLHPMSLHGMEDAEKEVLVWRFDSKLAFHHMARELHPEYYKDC

Binder | Kd | koff | kon
wild-type mouse Hck SH3 domain (domain or fragment, UniProt P08103 76-136, looked up, also called mHck SH3; mSH3; source: E. coli BL21(DE3)pLysS, purified (anion exchange, IMAC, size-exclusion chromatography)) SEDTIVVALYDYEAIHREDLSFQKGDQMVVLEEAGEWWKARSLATKKEGYIPSNYVARVNS | 130 ± 30 nM | 0.07 ± 0.36 s⁻¹ | 554000 ± 1.77 M⁻¹ s⁻¹
wild-type human Hck SH3 domain (domain or fragment, also called hHck SH3; source: E. coli BL21(DE3)pLysS, purified (anion exchange, IMAC, size-exclusion chromatography)) not shown | 70 ± 10 nM | 0.0118 ± 0.04 s⁻¹ | 160000 ± 0.06 M⁻¹ s⁻¹
